According to patent US20230346885A1 (published 2023):

Legend:
Test in all cases: binding, other
XAGE1 peptide on HLA = biological target: T1, XAGE1 peptide on HLA (human)
T1 peptide: ISQTPGINL

ASCL2 peptide on HLA = biological target: T2, ASCL2 peptide on HLA (human)
T2 peptide: ALSPAERELL

SLC45A2 peptide on HLA [1] = biological target: T3, SLC45A2 peptide on HLA (human)
T3 peptide: RLLGTEFQV

SLC45A2 peptide on HLA [2] = biological target: T4, SLC45A2 peptide on HLA (human)
T4 peptide: SLYSYFQKV

SMC1B peptide on HLA [3] = biological target: T5, SMC1B peptide on HLA (human)
T5 peptide: KLQKEVVSI

SMC1B peptide on HLA [4] = biological target: T6, SMC1B peptide on HLA (human)
T6 peptide: NIQELIHGA

TRPM1 peptide on HLA [5] = biological target: T7, TRPM1 peptide on HLA (human)
T7 peptide: RLGQGVPLV

TRPM1 peptide on HLA [6] = biological target: T8, TRPM1 peptide on HLA (human)
T8 peptide: RLLEKHISL

B1: TCR of SEQ ID NOs 615 and 616 (TCR, V domains shown)
Valpha: QKEVEQNSGPLSVPEGAIASLSCTYSDRGSQSFFWYRQYSGKSPELIMSIYSNGDKEDGRFTAQLNKASQYVSLLIRDSQPSDSATYLCAVGAGGYNKLIFGAGTRLAVHP
Vbeta: NAGVTQTPKFRVLKTGQSMTLQCTQDMNHNYMYWYRQDPGMGLRLIHYSVGEGTTAKGEVPDGYNVSRSTTEDFPLRLLSAAPSQTSVYFCASRREGPLHFGNGTRLTVT
binding result (XAGE1 peptide on HLA): recognises

B2: TCR of SEQ ID NOs 299 and 300 (TCR, V domains shown)
Valpha: QKEVEQNSGPLSVPEGAIASLNCTYSDRGSQSFFWYRQYSGKSPELIMSIYSNGDKEDGRFTAQLNKASQYVSLLIRDSQPSDSATYLCAVDTGRRALTFGSGTRLQVQP
Vbeta: NAGVTQTPKFQVLKTGQSMTLLCAQDMNHNSMYWYRQDPGMGLRLIYYSASEGTTDKGEVPNGYNVSRLNKREFSLRLESAAPSQTSVYFCASSVGGTYGYTFGSGTRLTVV
binding result (ASCL2 peptide on HLA): recognises

B3: TCR of SEQ ID NOs 563 and 564 (TCR, V domains shown)
Valpha: KQEVTQIPAALSVPEGENLVLNCSFTDSAIYNLQWFRQDPGKGLTSLLLIQSSQREQTSGRLNASLDKSSGRSTLYIAASQPGDSATYLCAVRPTEYGNKLVFGAGTILRVKS
Vbeta: NAGVTQTPKFRVLKTGQSMTLLCAQDMNHEYMYWYRQDPGMGLRLIHYSVGEGTTAKGEVPDGYNVSRLKKQNFLLGLESAAPSQTSVYFCASSNEGGGYTFGSGTRLTVV
binding result (SLC45A2 peptide on HLA [1]): recognises

B4: TCR of SEQ ID NOs 565 and 566 (TCR, V domains shown)
Valpha: KQEVTQIPAALSVPEGENLVLNCSFTDSAIYNLQWFRQDPGKGLTSLLLIQSSQREQTSGRLNASLDKSSGRSTLYIAASQPGDSATYLCAVDKAAGNKLTFGGGTRVLVKP
Vbeta: NAGVTQTPKFQVLKTGQSMTLQCAQDMNHNYMYWYRQDPGMGLRLIHYSVGAGITDQGEVPNGYNVSRSTTEDFPLRLLSAAPSQTSVYFCASKNWGTEAFFGQGTRLTVV
binding result (SLC45A2 peptide on HLA [1]): recognises

B5: TCR of SEQ ID NOs 567 and 568 (TCR, V domains shown)
Valpha: KQEVTQIPAALSVPEGENLVLNCSFTDSAIYNLQWFRQDPGKGLTSLLLIQSSQREQTSGRLNASLDKSSGRSTLYIAASQPGDSATYLCAVSGGGADGLTFGKGTHLIIQP
Vbeta: NAGVTQTPKFRILKIGQSMTLQCTQDMNHNYMYWYRQDPGMGLKLIYYSVGAGITDQGEVPNGYNVSRLNKREFSLRLESAAPSQTSVYFCASSEEGWSNSPLHFGNGTRLTVT
binding result (SLC45A2 peptide on HLA [1]): recognises

B6: TCR of SEQ ID NOs 569 and 570 (TCR, V domains shown)
Valpha: KQEVTQIPAALSVPEGENLVLNCSFTDSAIYNLQWFRQDPGKGLTSLLLIQSSQREQTSGRLNASLDKSSGRSTLYIAASQPGDSATYLCAVRDSWGKFQFGAGTQVVVTP
Vbeta: NAGVTQTPKFRVLKTGQSMTLLCAQDMNHEYMYWYRQDPGMGLRLIHYSVGEGTTAKGEVPDGYNVSRLKKQNFLLGLESAAPSQTSVYFCASSLGQGYGLAYDEQFFGPGTRLTVL
binding result (SLC45A2 peptide on HLA [2]): recognises

B7: TCR of SEQ ID NOs 571 and 572 (TCR, V domains shown)
Valpha: KQEVTQIPAALSVPEGENLVLNCSFTDSAIYNLQWFRQDPGKGLTSLLLIQSSQREQTSGRLNASLDKSSGRSTLYIAASQPGDSATYLCAALSYNTDKLIFGTGTRLQVFP
Vbeta: NAGVTQTPKFQVLKTGQSMTLQCAQDMNHNSMYWYRQDPGMGLRLIYYSASEGTTDKGEVPNGYNVSRLNKREFSLRLESAAPSQTSVYFCASRYSPYTEAFFGQGTRLTVV
binding result (SLC45A2 peptide on HLA [2]): recognises

B8: TCR of SEQ ID NOs 573 and 574 (TCR, V domains shown)
Valpha: KQEVTQIPAALSVPEGENLVLNCSFTDSAIYNLQWFRQDPGKGLTSLLLIQSSQREQTSGRLNASLDKSSGRSTLYIAASQPGDSATYLCAVRGYSTLTFGKGTMLLVSP
Vbeta: NAGVTQTPKFQVLKTGQSMTLQCAQDMNHEYMSWYRQDPGMGLRLIHYSVGAGITDQGEVPNGYNVSRSTTEDFPLRLLSAAPSQTSVYFCASSRGQFTEAFFGQGTRLTVV
binding result (SLC45A2 peptide on HLA [2]): recognises

B9: TCR of SEQ ID NOs 587 and 588 (TCR, V domains shown)
Valpha: KQEVTQIPAALSVPEGENLVLNCSFTDSAIYNLQWFRQDPGKGLTSLLLIQSSQREQTSGRLNASLDKSSGRSTLYIAASQPGDSATYLCAVSPRSNDYKLSFGAGTTVTVRA
Vbeta: NAGVTQTPKFRILKIGQSMTLQCAQDMNHNYMYWYRQDPGMGLKLIYYSVGAGITDKGEVPNGYNVSRSTTEDFPLRLELAAPSQTSVYFCASSTGSSYNSPLHFGNGTRLTVT
binding result (SMC1B peptide on HLA [3]): recognises

B10: TCR of SEQ ID NOs 589 and 590 (TCR, V domains shown)
Valpha: QKEVEQNSGPLSVPEGAIASLNCTYSDRGSQSFFWYRQYSGKSPELIMSIYSNGDKEDGRFTAQLNKASQYVSLLIRDSQPSDSATYLCAVGGRDDKIIFGKGTRLHILP
Vbeta: NAGVTQTPKFQVLKTGQSMTLQCAQDMNHNSMYWYRQDPGMGLRLIYYSASEGTTDKGEVPNGYNVSRSTTEDFPLRLLSAAPSQTSVYFCASSYTDGVNSPLHFGNGTRLTVT
binding result (SMC1B peptide on HLA [3]): recognises

B11: TCR of SEQ ID NOs 591 and 592 (TCR, V domains shown)
Valpha: KQEVTQIPAALSVPEGENLVLNCSFTDSAIYNLQWFRQDPGKGLTSLLLIQSSQREQTSGRLNASLDKSSGRSTLYIAASQPGDSATYLCAVDQDSGYALNFGKGTSLLVTP
Vbeta: DTGVSQNPRHKITKRGQNVTFRCDPISEHNRLYWYRQTLGQGPEFLTYFQNEAQLEKSRLLSDRFSAERPKGSFSTLEIQRTEQGDSAMYLCASSLYRSYEQYFGPGTRLTVT
binding result (SMC1B peptide on HLA [3]): recognises

B12: TCR of SEQ ID NOs 593 and 594 (TCR, V domains shown)
Valpha: KQEVTQIPAALSVPEGENLVLNCSFTDSAIYNLQWFRQDPGKGLTSLLLIQSSQREQTSGRLNASLDKSSGRSTLYIAASQPGDSATYLCAVRPWGYNQGGKLIFGQGTELSVKP
Vbeta: NAGVTQTPKFQVLKTGQSMTLQCAQDMNHNSMYWYRQDPGMGLRLIYYSASEGTTDKGEVPNGYNVSRSTTEDFPLRLLSAAPSQTSVYFCASSYWGDTEAFFGQGTRLTVV
binding result (SMC1B peptide on HLA [4]): recognises

B13: TCR of SEQ ID NOs 595 and 596 (TCR, V domains shown)
Valpha: KQEVTQIPAALSVPEGENLVLNCSFTDSAIYNLQWFRQDPGKGLTSLLLIQSSQREQTSGRLNASLDKSSGRSTLYIAASQPGDSATYLCAVKEGTDSWGKFQFGAGTQVVVTP
Vbeta: NAGVTQTPKFRVLKTGQSMTLLCAQDMNHEYMYWYRQDPGMGLRLIHYSVGEGTTAKGEVPDGYNVSRLKKQNFLLGLESAAPSQTSVYFCASSYPSREAFFGQGTRLTVV
binding result (SMC1B peptide on HLA [4]): recognises

B14: TCR of SEQ ID NOs 597 and 598 (TCR, V domains shown)
Valpha: KQEVTQIPAALSVPEGENLVLNCSFTDSAIYNLQWFRQDPGKGLTSLLLIQSSQREQTSGRLNASLDKSSGRSTLYIAASQPGDSATYLCAVWSWGKLQFGAGTQVVVTP
Vbeta: NAGVTQTPKFRVLKTGQSMTLLCAQDMNHEYMYWYRQDPGMGLRLIHYSVGEGTTAKGEVPDGYNVSRLKKQNFLLGLESAAPSQTSVYFCASSRGVPEVFFGQGTRLTVV
binding result (SMC1B peptide on HLA [4]): recognises

B15: TCR of SEQ ID NOs 599 and 600 (TCR, V domains shown)
Valpha: KQEVTQIPAALSVPEGENLVLNCSFTDSAIYNLQWFRQDPGKGLTSLLLIQSSQREQTSGRLNASLDKSSGRSTLYIAASQPGDSATYLCAVSGSWGKLQFGAGTQVVVTP
Vbeta: NAGVTQTPKFRVLKTGQSMTLLCAQDMNHEYMYWYRQDPGMGLRLIHYSVGEGTTAKGEVPDGYNVSRSTTEDFPLRLLSAAPSQTSVYFCASSLMDRPGEQFFGPGTRLTVL
binding result (TRPM1 peptide on HLA [5]): recognises

B16: TCR of SEQ ID NOs 601 and 602 (TCR, V domains shown)
Valpha: KQEVTQIPAALSVPEGENLVLNCSFTDSAIYNLQWFRQDPGKGLTSLLLIQSSQREQTSGRLNASLDKSSGRSTLYIAASQPGDSATYLCAVTDSWGKLQFGAGTQVVVTP
Vbeta: NAGVTQTPKFRVLKTGQSMTLLCAQDMNHEYMYWYRQDPGMGLRLIHYSVGEGTTAKGEVPDGYNVSRLKKQNFLLGLESAAPSQTSVYFCASSYADTYEQYFGPGTRLTVT
binding result (TRPM1 peptide on HLA [5]): recognises

B17: TCR of SEQ ID NOs 603 and 604 (TCR, V domains shown)
Valpha: KQEVTQIPAALSVPEGENLVLNCSFTDSAIYNLQWFRQDPGKGLTSLLLIQSSQREQTSGRLNASLDKSSGRSTLYIAASQPGDSATYLCAVRDSWGKFQFGAGTQVVVTP
Vbeta: NAGVTQTPKFQVLKTGQSMTLQCAQDMNHNSMYWYRQDPGMGLRLIYYSASEGTTDKGEVPNGYNVSRLNKREFSLRLESAAPSQTSVYFCASSEWAWGLGTEAFFGQGTRLTVV
binding result (TRPM1 peptide on HLA [5]): recognises

B18: TCR of SEQ ID NOs 605 and 606 (TCR, V domains shown)
Valpha: KQEVTQIPAALSVPEGENLVLNCSFTDSAIYNLQWFRQDPGKGLTSLLLIQSSQREQTSGRLNASLDKSSGRSTLYIAASQPGDSATYLCAAATRNNTGKLIFGQGTTLQVKP
Vbeta: NAGVTQTPKFRILKIGQSMTLQCTQDMNHNYMYWYRQDPGMGLKLIYYSVGAGITDKGEVPNGYNVSRSTTEDFPLRLELAAPSQTSVYFCASSKSDLGGYTFGSGTRLTVV
binding result (TRPM1 peptide on HLA [6]): recognises

B19: TCR of SEQ ID NOs 607 and 608 (TCR, V domains shown)
Valpha: KQEVTQIPAALSVPEGENLVLNCSFTDSAIYNLQWFRQDPGKGLTSLLLIQSSQREQTSGRLNASLDKSSGRSTLYIAASQPGDSATYLCAVRGMNTGFQKLVFGTGTRLLVSP
Vbeta: NAGVTQTPKFQVLKTGQSMTLQCAQDMNHEYMSWYRQDPGMGLRLIHYSVGAGITDQGEVPNGYNVSRSTTEDFPLRLLSAAPSQTSVYFCASSPGVTSTEAFFGQGTRLTVV
binding result (TRPM1 peptide on HLA [6]): recognises

B20: TCR of SEQ ID NOs 609 and 610 (TCR, V domains shown)
Valpha: KQEVTQIPAALSVPEGENLVLNCSFTDSAIYNLQWFRQDPGKGLTSLLLIQSSQREQTSGRLNASLDKSSGRSTLYIAASQPGDSATYLCAVPAQGGSEKLVFGKGTKLTVNP
Vbeta: NAGVTQTPKFQVLKTGQSMTLQCAQDMNHEYMSWYRQDPGMGLKLIYYSVGAGITDKGEVPNGYNVSRSTTEDFPLRLESAAPSQTSVYFCASTESPYYGYTFGSGTRLTVV
binding result (TRPM1 peptide on HLA [6]): recognises

B21: TCR of SEQ ID NOs 613 and 614 (TCR, V domains shown)
Valpha: QKEVEQNSGPLSVPEGAIASLNCTYSDRGSQSFFWYRQYSGKSPELIMSIYSNGDKEDGRFTAQLNKASQYVSLLIRDSQPSDSATYLCAVNEGYQKVTFGIGTKLQVIP
Vbeta: NAGVTQTPKFQVLKTGQSMTLQCAQDMNHEYMYWYRQDPGMGLRLIHYSVGAGITDQGEVPNGYNVSRSTTEDFPLRLLSAAPSQTSVYFCASSRDYDYGQYFGPGTRLTVT
binding result (XAGE1 peptide on HLA): recognises
